# The DeepSol protein solubility set
# Assay: soluble on expression in E. coli; label from the status in PepcDB or PDB records
row,Sequence,soluble on expression in E. coli
1,MPLSKRRAAGRINGLKGPPAKKRKEIERHEALLMHPLAYTAEQYEQVAEESKFYKNCFETTAAENVELLKSNDQLKKELELLKNQQGNQLKVDMKFKSQIESTRQSNMTLLREREIWQNRYYDVLAEKLALSARVKSMMGDIVESVEVPNDSNGNTWELREDLEIDRSARRKTEEEPKAQKMNSTRGSLPRNQCSTRSNNQTPNEMLLKMAIGLDTTSVN,not soluble
2,MPLSPYLSFAGNCSDAIAYYQRTLGAELLYKISFGEMPKSAQDSAENCPSGMQFPDTAIAHANVRIAGSDIMMSDAIPSGKASYSGFTLVLDSQQVEEGKRWFDNLAANGKIEMAWQETFWAHGFGKVTDKFGVPWMINVVKQQPTQ,not soluble
3,MPLTDPAKLQIVQQRVFLKKVCRKCGALNPIRATKCRRCHSTNLRLKKKELPTKKG,soluble
4,MPLVQMKDILMKANQENYGVGAFSVTNMEMVMGAIKAAEELSSPLILQIAEVRLNHSPIHMIGPLMVAAAKQATVPVAVHFDHGMTFEKIQETLEIGFSSVMFDGSHYPLEENIQKTKEIVELAKQYGATVEAEIGRVGGSEDGSEDIEMLLTSTTEAKRFAEETDVDALAVAIGNAHGMYNGDPNLRLDRLQEINDVVHIPLVLHGGSGISPEDFKQCIQHGVRKINVATATFQNVITAVNNTVLNTPYSDYFTYHQDVIKAAYENVKSHMQIFGSENRA,not soluble
5,MPMAKPLKYPVSALVVLYSGDGGILLIERTHPEGFWQSVTGSLEPGETVAQTARREVWEETGILLADGQLQDWHDSTVYEIYHHWRHRYPKGVFENREHLFSAEIPRDTPIALQPEEHVSYGWFDMEEAAEKVFSPSNRRAILELGRFLGKR,not soluble
6,MPMIIKQEQFIPKDTVETTIDLLIRNLTTIKDNTGEFLLDFDGLKVDDKSWTIWNWPQGVGLYGIYKNYRNTKSEKALQVVNDWFEGRMQEGAPPKNVNTMAPLLTMAYLYEDTKDSKYIPYLEQWAEWVMEEMPRTNEGGLQHATYGPENKNQLWDDTLMMTVLPLAKIGKLLNRLDYLEEAKHQFLIHIKYLQDKKSGLWYHGWTFEGNHNYAEALWARGNCWITIAIPEIIEILELPKGDSLREFLLSTLNAQVAALAKYQDESGLWHTLINDSNSYLESSATAGFAYGILKAVHKKYISSEYEEVANKAIAGLLNEIDETGEVQHVSVGTGMGDNLDFYRTIGMTAMPYGQSLTILCLTELLVSYC,not soluble
7,MPMVRVATNLPDKDVPANFEERLTDLLAESMNKPRNRIAIEVLAGQRITHGASRNPVAVIKVESIGALSADDNIRHTQKITQFCQDTLKLPKDKVIITYFDLQPIHVGFNGTTVAAATM,soluble
8,MPMVVAKRNARERTRVHTVNQAFLVLKQHLPSLRQFTKRVSKLRILNAAITYIDTLLKLIQSSEAVPQSVISATLGPIVPTPVRAVHKISKPDTVISQPIRPLAPVLPRHETYLPAPIAATCAPDHSLVDYRSTFASSLAPPVPMQMPSVFSPQPTFPYMKSLLDYPTYFYQPSTAPPPPPAPTAPQSHLIVNNQLVPMPSYQCF,not soluble
9,MPNELSRSLSPYLLMHANDPVEWRMWSKETLRIATEENRLIFLSIGYSSCHWCHVMHEESFVDPDVAEILNNNYIPVKVDREERPDLDSYFMKVSQVINGNGGWPLNIILLPDARPVFAMTYVPKEDRNGMTGLKTILIQLSQMYLKDPDQFKDQAKAVSDAMEERESV,soluble
10,MPNKRNVELLATLKENLERAQGSFFLVNYQGLPAKETHALRQALKQNGARLFVAKNTLIRLALKELGLPELDGLQGPSAVVFYEDPVAAAKTLVQFAKSNPKGIPQVKSGLLQGQILTAKDVEALAELPTMDELRAELVGVLQAPMAELVGVLGGVARELVGILEAYAEKKAA,soluble
11,MPNSKKSKKGGDQQHVTIVPVEPVKGENVDTVAYSSRSRISGESGHLIADVQSPHAKKHRIIFDRDHNVFEFRLLDGSAKHIIVYRLDELLSTTCYPFKIKNGVPIIPTKPTTSDKTLYFNFVYKKDKQKWRLKQIPVIFYTTSERDYWHSLIDTTLRRVKNRPKNIIIFINPFGGNGKAQKIFKDNVDAFFWLTPGLRYKVVLTERANHARDYIVEMPPEQWSAIDGLVSVGGDGLFNELLSGALLRTQTDAGRNIDNPSSHLVTPHIRFGIIGAGSANSIVSTVHETNDHATSAVHIAIGSECNVDVCTVHQHQKLIRISANAISYGWLGDVLRDSEEYRCLGPIRYQWSALRTTIRHPIYRGMVQFSLSHKENVNPKDQLPPCLEPCPVCMKPQGNDKYDYHWHAEFTHVICCVIPTVTPFTPYGLAPFTGIGDGTLDLALVPRISRFHNMQFMRKVAMYGGKQLYELDPSLNCYRVTKWSYQPDADQEDPGVWNLDGEILEQPKDEPLHFKLHPQLISFFGRDAAMVKPTKRSFIKKRKSSIVYQ,not soluble
12,MPPKKTQKSGLLQFFAKQQQEKYQNSSKNEETTEHDDSCQILFEKQVAGPSKVSKPIGFPTTPKNTTKWAETLQKSSEKAGRDWLNPFPIRVSSAKKEIEKNSKTELLAKGFDDIHGNGIFYPINEPIRNFELNLLKCLSSSNCCVALPSSSPSTPGRICAMTVFNFLKWFPRCRVLLVSSSDSWISSLRQLGLESQTTKLTTVTQFKNLKTEAGKILVCTTPQCALKVVESTGGREFLEEIRLVLMELKPNECCSKYKPILNALTVKETFFRCSVLTTSTSNASRRTASITKRQQMITNLQLSDWIEQTEADFAFRSANIPAGVEVKTWKSEDNSAKHAEITGKFEKYCEKTIDDLARQCIVSSKSVKKLIWTCWKTLKQQSKLPEIEKKKLEISEFLTCTYKLLIIDGVVAARNFVKKHSEIPHIKEHAEKILEPTIFGGFSEFPAKFQQLSDSIEAFLKMDNHVLGVILCRDSDQAIEIQNYLELQLTTRCTCVRIIEEGTHPGRNLWNIQRISTVFIDRKSPKIVILPVKIRDFIGFSDGLPLSELTFIASISRDSLFNFRRFGGAHLLIINDPLEKLRNEDGRLLVDDGKFVQNNSKNAPKMGAVERYDFKFEPSRLRIDATHLPIQFFYPRDVGVTFDETAGISQLGKTHIEMTSKEHTELFKRLQNPDFSRFQRRKRVFWVLEDLEHPNENKSIPIEEMDETQLCWNQDIQYLGEIKSSKLSERLTRYMKDEPVEWIINEKRRFEYINEITSTDRLVHLDRLLRNLDAHFQVLSSC,not soluble
13,MPPKTSEVARKLERLGFKPLPRRGKGGHRVYVHPDGRKVVLPLHSGEIPWGLFKTVLKQAGITEEEFRRA,soluble
14,MPPPLPYDAMRSVWTDTAAPAMATVPLAGHADCDVAIVGAGITGLSAALHLAERGLRACVLEARDPGWGASGRNGGQVIPGIKHDPDEILARHGRERGEPLLHMVGTAADTVFDLIDRYGLDCHPVRRGWIQPAHSRQALDAVLARARQWRARGADVAELDAGDVARRLGTGRFLGGWIDRRAGSIQPLRYTRGLLRAALSLGAAVHGQSPVVALQREGSRWLVRCAQGASVRAEHVLIATNAYTDDLWPGLRRTVIAANSFIVATGPLDPALAPAILPGGEVASDSRRLLLYFRRDADRRFILGGRGRFADPVSDADWNHLVRGARLLYPQLADTPFVHRWSGRVALTRDFVPHVHQPSPNLRIVLGYNGRGVALATQMGNYLAREISGGEPLPYPVTPIAPIPLHGLKRLYIGLAVAYYGLCDRISLEHHHHHH,not soluble
15,MPQPKKDKPDTPLRSDAQRNRERILAVATEELTHCANAPLSAIAKKAGVGQGTFYRNFPNREALVLEIYRYGMQQVAEAAPEMLATGEPDLALRQWMDRLAEFAMTKAGLADAIRLVTSAPGAPEKPRPTPLEDAAELLLRANHEAGTIRPGVTGDDFFLVLGGLWLIDPGENWQPRVTRFLDLVMDGLRAGAPGR,not soluble
16,MPQQNYLDELTPAFTSLLAIKEASRCLLCHDAPCSQACPAQTDPGKFIRSIYFRNFKGAAETIRENNALGAVCARVCPTEKLCQSGCTRAGVDAPIDIGRLQRFVTDFEQQTGMEIYQPGTKTLGKVAIIGAGPAGLQASVTLTNQGYDVTIYEKEAHPGGWLRNGIPQFRLPQSVLDAEIARIEKMGVTIKCNNEVGNTLTLEQLKAENRAVLVTVGLSSGSGLPLFEHSDVEIAVDFLQRARQAQGDISIPQSALIIGGGDVAMDVASTLKVLGCQAVTCVAREELDEFPASEKEFTSARELGVSIIDGFTPVAVEGNKVTFKHVRLSGELTMAADKIILAVGQHARLDAFAELEPQRNTIKTQNYQTRDPQVFAAGDIVEGDKTVVYAVKTGKEAAEAIHHYLEGACSC,not soluble
17,MPRFAANLSMMFTEVPFIERFAAARKAGFDAVEFLFPYNYSTLQIQKQLEQNHLTLALFNTAPGDINAGEWGLSALPGREHEAHADIDLALEYALALNCEQVHVMAGVVPAGEDAERYRAVFIDNIRYAADRFAPHGKRILVEALSPGVKPHYLFSSQYQALAIVEEVARDNVFIQLDTFHAQKVDGNLTHLIRDYAGKYAHVQIAGLPDRHEPDDGEINYPWLFRLFDEVGYQGWIGCEYKPRGLTEEGLGWFDAWRGS,soluble
18,MPRRIDKVSSMTKGHITMSMNKLNLFNIYRKDPLQYFGKTLYQQKWAAKTETRNYHGQQIKEKRFKNVLFDSNLKTYSQLDASLKGHDVAPTPITLQTYGTLEKRLEIALFRSMFASSVRQARQFILGGYVKVNGVVIKHPSFPLQSGDVFSVDPEKVLFALGKTKPSLEKALSVDKKQIKKWNNYVFEAKKNPEKIWDLKQNKPDSLDTLKQVEDFEKQKKSVQNAQKLMKIQQNQVTRQSILQEIIQLGNAASEPASLETFNKYGDVARTKCLQIYQTLTNKNHPITKDPSTKNIEGFLAKDENKSPEEKHEVRLINSTLRELQSSEWERIRIQFENFEEGTDTKFFQTSFAKALRGVPKLNKEEILEDESKAKVQLPWQKHLFGRKDPSRSYFTPWTPRPFLGAFAILPSHIEISFDTCHAIYLRDPVARPGHSEVISPFPDHVHERAYMYYVRKGKS,not soluble
19,MPRVGIITSDFKFYHDVIKQLRLWKIPFVSLDLKGNIPDDVVVILSSIRDDIDLPDQVKAQDGLDGIRRAIPRLLNKTMFKDLTIGIDPGPKPGIAVFGDDVLLEAFECPTVFSVRKFVDSISMSYSYENITIKIGNGDRPNRDIIMNRLSDVDISIEVVNEKNTSTPHKIHDNALSAARIAQINGLYPIKRIPVKFSRKNVYEKEFVTLKNVIENAAGTEGRSSNST,not soluble
20,MPSAHSVKLRPLEREDLRYVHQLDNNASVMRYWFEEPYEAFVELSDLYDKHIHDQSERRFVVECDGEKAGLVELVEINHVHRRAEFQIIISPEYQGKGLATRAAKLAMDYGFTVLNLYKLYLIVDKENEKAIHIYRKLGFSVEGELMHEFFINGQYRNAIRMCIFQHQYLAEHKTPGQTLLKPTAQ,soluble
21,MPSDIPKTRLETEGTTQHTSPLRATCHRVFSLNAGRKAGEQYHLFCTSKSDNSTCLDGPARVVLRDILDNLYNRISSMPRANEIKKGMVLNYNGKLLIVKDIDIQSPTARGAATLYKMRFSDVRTGLKVEERFKGDDIVDTVTLSRRGVDFSYVDGNEYVFMDKEDYTPYTFTKDQIEEELLFMPEGGMPDMQVLTWDGQLLALELPQTVDLEIVETAPGIKGASASARNKPATLSTGLVIQVPEYLSAGEKIRIHIEERRYMGRAD,not soluble
22,MPSIYKSVTINTSKEMMCFSDFPVPDHFPNYMHNSKLMDYFGMYATHFGLLNYIRFKTEVQSVRKHPDFSINGQWDVVVETEEKQETLVFDGVLVCSGHHTDPYLPLQSFPGIEKFEGCYFHSREYKSPEDFSGKRIIVIGIGNSGVDIAVELSRVAKQI,not soluble
23,MPSKQVGWWTMSEHTNDEVQPTALSGNDAVNRAAEQWKESAHRNIPGLGDLPIPDDTANLREGPNLHDGLLALLPLVGVWRGTGHADTAEEGQYAFGQQITFAHDGENYLTYESRIWKLDDEGNSTDLDYRESGFWRISLKDEIEVVLTHSTGVAEIFYGEPMNERAWQIESASTMVTAQGPATLGPGKRLYGLMPNNNLGWVDERMVDGEMRPRMSAELSRVIGLEHHHHHH,soluble
